target: tetramethylrhodamine isothiocyanate-labeled actin (UniProt P68139); test: optical trap

Going from “heterodimeric heavy meromyosin with one wild-type head and one E470A head (from UniProt P10587;P02607) (complex)” to “single-headed subfragment-1 with neonatal epitope tag at its COOH terminus (from UniProt P10587;P02607) (complex)”, the step duration (τon) rises from 106 ms to 189 ms.

Work on “wild-type smooth muscle heavy meromyosin (from UniProt P10587;P02607) (complex)” yielded a step duration (τon) of 104 ms.
